{
  "source": "the DeepSol protein solubility set",
  "data": [
    {"test": "soluble on expression in E. coli; label from the status in PepcDB or PDB records", "values": [
      {"sequence": "MAPTNKDGDVATVKAVDVLKQKAGAHHCLGNVHANLPVNKVTVHPLVLLSVVDHFNRVSKTQSVKRVVGVLLGSMKKDKTLDIGNSFAVPFDEDDKDKSTWFLDMDYLESMYGMFYKVAAKEKIVGWYHTGPKLHKNDIAINEQLKRFCPNPVLVIIDAEPKNIGLPTEAYIEVQEVHDDGTPPIKTFEHVPSDIGAEEAEEVGVEHLLRDIKDQTAGTLSQRITDQLMGLRGLQSQLESIEKYLHDIVRGTLPVNHHVIYYVQEVLNLLPDVTHPDYIVSQNVQTNDQLMCVYMGSLVRSVVALHNLIDNKISLQKAEKEQETGEAEKKKDEKDKKDKKDEKKDEKKEKDSKSSTPNTPKK", "soluble on expression in E. coli": "not soluble"},
      {"sequence": "MAQFSIFPEQNSLQDLLNIHSVQEDTQYKSMGIYDLKTCEIPMRPPTHQNPAQKEHNTMEDEMMAVLNSFSRRIEIMSAPEPKAFRYYFEISPPPKPEAPKSQLGLGDLSEESYPLTPEPIQLDTCLTWSPVELQFDPFAEPEPIFYNEEMDSGPTPEPIPDIFESPRSEVEAVKMFRSEVIYEDFAEE", "soluble on expression in E. coli": "not soluble"},
      {"sequence": "MAQHEVITRGGDAFLLKLRESALSSGSMSEEQFFLLIGISSIHSDRVILAMKDYLVSGHSRKDVCEKYQMNNGYFSTTLGRLTRLNVLVARLAPYYTDSVSAIAEAASL", "soluble on expression in E. coli": "soluble"},
      {"sequence": "MAQKSALIILAAEGAEEMEVIITGDVLARGEIRVVYAGLDGAEPVKCARGAHIVPDVKLEDVETEKFDIVILPGGQPGSNTLAESLLVRDVLKSQVESGGLIGAICAAPIALLSHGVKAELVTSHPSVKEKLEKGGYKYSEDRVVVSGKIITSRGPGTAFEFALKIVELLEGKDKATSLIAPMLLKL", "soluble on expression in E. coli": "not soluble"},
      {"sequence": "MAQVFNFSSGPAMLPAEVLKLAQQELCDWHGLGTSVMEISHRGKEFIQVAEEAEQDFRDLLNIPSNYKVLFCHGGGRGQFAGVPLNLLGDKTTADYVDAGYWAASAIKEAKKYCAPQIIDAKITVDGKRAVKPMREWQLSDNAAYLHYCPNETIDGIAIDETPDFGPEVVVTADFSSTILSAPLDVSRYGVIYAGAQKNIGPAGLTLVIVREDLLGKAHESCPSILDYTVLNDNDSMFNTPPTFAWYLSGLVFKWLKAQGGVAAMHKINQQKAELLYGVIDNSDFYRNDVAQANRSRMNVPFQLADNTLDKVFLEESFAAGLHALKGHRVVGGMRASIYNAMPIEGVKALTDFMIDFERRHG", "soluble on expression in E. coli": "not soluble"},
      {"sequence": "MARDGAVYACQSCGAVQTKWSGQCSACQSWNTLVEEVSAKPPGALSATKATRVRGLQFTGLESETAPPPRILTGVDEFDRVCGGGVVPGSALLIGGDPGVGKSTLLLQVCASAAARGVSCAYISGEEAVEQIRGRADRMGLAKANVSLAAETALRDILDGLKRDNFDLVVIDSIQTMWSDAHEAGPGTVTQVRACATELVRLAKKKGVAILLVGHVTKDGQIAGPRVVEHLVDAVLSFEGERGYPFRILRGAKNRFGATDEIGVFEMGDVGLREVKNPSALFLNEGGERAAGAAVFAGIEGSRPVLVEFQALVAPSAYGTPRRAVVGWDSGRLAMVLAVLEARCGLGFGDKDVYLNVAGGLRITEPAADLAAAAALASSALDVALPQDCVVFGELSLSGEVRPVSRMETRLKEAAKLGFGRALGPLAGLPEGGGALPVAGVARLTDAVRRIGDEIWTSLT", "soluble on expression in E. coli": "soluble"},
      {"sequence": "MARGIWGVDSAQVVTDQLFQCVRTELGYPKFWGRYLSEVPNVSEGLTRDEIVRIRNYGVKVLPIYNAFREAVGYANGQVAARNAVFHARRLGIPKNKLLFANIEDFFAVDAAWIAAWVETLYPTGYRPGLYADPTKGDFAAAYCEAVSRNNQVAVQAVIWSAAPRPGTTKEQKAPRYQPAAPPCSANVWVWQYGRDAEVCPVDTNLADRRLLDFLY", "soluble on expression in E. coli": "soluble"},
      {"sequence": "MARGREAVTLLLVGWGYAPGMQTLEALDAVRRADVVYVESYTMPGSSWLYKSVVEAAGEARVVEASRRDLEERSREIVSRALDAVVAVVTAGDPMVATTHSSLAAEALEAGVAVRYIPGVSGVQAARGATMLSFYRFGGTVTLPGPWRGVTPISVARRIYLNLCAGLHTTALLDVDERGVQLSPGQGVSLLLEADREYAREAGAPALLARLPSVLVEAGAGGGHRVLYWSSLERLSTADVEGGVYSIVIPARLSGVEEWLLAAASGQRRPLEYDRSVYETVEENCKKGVYMEPV", "soluble on expression in E. coli": "soluble"},
      {"sequence": "MARLKTAQPNSSLRKIAVVVATAVSGMSVYAQAAVQPKEETITVTAAPAAQESAWGPAPTIAAKRSATTTKTDTPIEKTPQSVSVVTNEEMQMHQFQSVKEALGYTPGVTVSSRGASNTYDFVIIRGFSSVGLSQNNYLDGLKLQGNFYNDAVIDPYMLERVELMRGPTSVLYGKSNPGGIISMVSKRPTTEPLKEIQFKMGTDNLFQTGFDFSDSLDDNGEFSYRLTGLARSTNEQQKSSESQRYAIAPSFTWRPDEKTNFTFLSYFQNEPETGYYGWLPKEGTVEPLPNGKRLPTDFNEGASNNTYSRNEKMVGYSFEHGFNDTFTVRQNLRFVEMKTAQKSVYGTGIAADGHTLNRGTIVDNERLQNFSVDTQLESKFATGDIDHTLLTGVDFMRMRNDINATFGSAPSIDLYNNYHPEYFAFGGAEPYQMNESKQTGLYVQDQAEWNKWVFTLGGRYDWSKQATTVRQNSTTPTEGYIERNDHQFTWRGGVNYVFDNGISPYFSYSQSFEPSAFDLWSTPRVSYKPSKGEQYEAGVKYVPKDMPVVVTGAVYQLTKTNNLTADPTNPLAQVPAGEIRARGVELEAKAALTANINMTASYTYTDAEYTKDTNLKGNTPEQVPEHMASLWGDYTFNEGPLSGLTLGTGGRFIGSSYGDPANSFKVGSAAVMDAVVKYDLARFGMAGSSIAVNVNNLLDREYVASCFQTYGCFWGAERQVVATATFRF", "soluble on expression in E. coli": "not soluble"},
      {"sequence": "MARMKARSAKGKRVAKDTWKSKVWYDIYTPQSFGGDVIGQTPANDPANLIGRISEISLRDLTNEHSKHMTRMYFKVDGVSGNNATSQFVGHDTTREYLKSQVRRRRSKINAIVEVRTKDGFKVRVKALVLTAVRARDHHKTEIRVRMEQIIKEMAKETPFAEFVHAMLMGGLGSKIYGDCKKMFPLKRVEIFKSEVIEFGKAAEAPVEEAAAEEVVEEAAAETQELEHHHHHH", "soluble on expression in E. coli": "soluble"},
      {"sequence": "MASFVEMRKLAEAKVQNMIRTIVKPKEQNGNVEPKKEEDEKFESTYKQNENTQITPSSFGKRPLYSKVDINCDKWLMTLDEESRLKIDNPPSLVDGLSKETESELRYLGCELIQQGAILLKLPQTAAATGQILFQRYYYQKSFVRYHFEHAVQACLLLASKIEEEPRRPREVYNVFHRLERLHRLQQSGHDINKRLEAKHGSSILRCFG", "soluble on expression in E. coli": "not soluble"},
      {"sequence": "MASGASATQRIPSKRQTLDEAYAPPANFLEIEVINPITHGVGKMRYTDYEIRMRSNLPVFKQKESSVRRRYSDFEWVRAELERDSKIVVPTLPGKSFKRQLPFRSDDGIFEEEFIENRRKALELFINKVAGHPLAQNERSLHIFLQEPTIDKNYVPGKIRTA", "soluble on expression in E. coli": "soluble"},
      {"sequence": "MASGKVRCTRKLRSWIVEQVESGHFPGVCWDDAAKTMFRIPWKHAGKQDFREDQDAAIFKAWALFKEKHKDGDIGHPAVWKTRLRCALNKSSEFEEVPERGRMDVAEPYKVYRILPAGTLPNQPRNQKSPCKRSISCVSPEREENMENGRTNGVVNHSDSGSNIGGGGNGSNRSDSNSNCNSELEEGAGTTEATIREDPVFLEHQLPLNSDYSLLLTFIYGGRVVGKTQVHSLDCRLVAERSDSESSMEQVEFPKPDPLEPTQHLLNQLDRGVLVASNSRGLFVQRLCPIPISWNAPEAPPGPGPHLLPSNKCVELFKTTYFCRDLAQYFQGQGPPPKFQATLHFWEESPGSSHSQENLITVQMEQAFARHLLEKIPEEEKAALFLLQHTEQSPSALGH", "soluble on expression in E. coli": "soluble"},
      {"sequence": "MASHWMIYGANGYTGRLVAEQAQREGLTPLLGGRNPAALHALGSQLGLECRVFDLGDPQACREALDQVKVVAHCAGPFSATSTPMIAACRAAGTHYVDITGEIAVFEQAHAGDAEAREAGIVVCPGVGFDVIPTDCLAACLKEALPDAQRLALGFDTGSGLSTGTAKTSVEGLKFGGKIRENGRLRDVPLGYKRRDIDFGRGLRHAVTIPWGDVATAYYSTGIPDIEVYLPAPPLLALGMRLIDPLRPLLGRQRVQDWLKGQVDKRIAGPDQAARERLRTWVWGEARNARGERRTARLETANVYDLTLHGVLLAVRHLLDYQGPGGYFTPSRLLGARCVESLPGSGRITVIG", "soluble on expression in E. coli": "not soluble"},
      {"sequence": "MASIKKVYRGMKNGAETINDDLEAINSELTSGGNVVHKTGDETIAGKKTFTGNVEVNGSLTLPTKSWSGELGGGIILSLRKKGTTVEYSIGGEISSSILANSNLVNRSVPNEFCPRNRCSLVGHMVGGWNAFHIDIPSSGVCQWFGPTASSGTPRGTGTYPIDHHHHHH", "soluble on expression in E. coli": "soluble"},
      {"sequence": "MASIPTVNVIGAGLAGSEAAWHIANMGVNVRLYEMRPNKMTPAHHTAQFAELVCTNSLRANQLANAAGLLKAEMRQMDSIVMQAAEHHAVPAGGALAVDRDTFSAEITAAITALPNVEIINEEITSLPDGITVVATGPLTAASLAKSIQAFNDEDDLHFFDAAAPILTKDSIDMDKVYLKSRYDRGEAAYLNCPMTEAEFDVFYDALIHAEMAEAHDFENSDVFEGCMPIEVMAQRGRQTMLFGPLKPVGLEDPKTGKQPFAVVQLRQDDAAGDLYNIVGFQTHLKWGEQKRVFSLIPGLENVEFVRYGVMHRNTFMKSPKLLTPTYQTQQRPDLFFAGQMTGVEGYIESAASGIVAGTNAARLALGLEPVVFPTDTMMGAMAHYITHTSASNFQPMNANFGIMPKLKQRIRDKRERNTAISERALADLTTFKDETLTVNNLEHHHHHH", "soluble on expression in E. coli": "soluble"},
      {"sequence": "MASKTIKIMPVGDSCTEGMGGGEMGSYRTELYRLLTQAGLSIDFVGSQRSGPSSLPDKDHEGHSGWTIPQIASNINNWLNTHNPDVVFLWIGGNDLLLNGNLNATGLSNLIDQIFTVKPNVTLFVADYYPWPEAIKQYNAVIPGIVQQKANAGKKVYFVKLSEIQFDRNTDISWDGLHLSEIGYKKIANIWYKYTIDILRALAGETQLEHHHHHH", "soluble on expression in E. coli": "soluble"},
      {"sequence": "MASMGVPALFRLLSRKFAKVITPVIEAPTEKLPDGTEIEPDLSLPNPNGVECDNLYLDMNGIVHPCSHPEDRPAPETEDEMMVAVFEYTDRILAMVRPRQLLFIAIDGVAPRAKMNQQRSRRFRSSREAALKEEELQAFIEEAKQQGIPIDENATKKKSWDSNCITPGTPFMDTLAKSLRYYIINKLNSDPCWRNVRFILSDASVPGEGEHKIMEFIRSQRVKPEYDPNTHHVVYGLDADLIMLGLATHEPHFRVLREDVFFQQGSTKKTKEERLGIKRLDDVSETNKVPVKKPFIWLNVSILREYLEVELYVPNLPFPFDLERAIDDWVFFIFFVGNDFLPHLPSLDIRDGAVERLTEIWRASLPHMGGYLTLDGSVNLARAEVILSAVGNQEDDIFKRLKQQEDRRNENYRRRQQRESNQESESYVDNVVIQRSVETQSTEVVTSSKSTSVDTKPPKKTQKIDAPAPVDLVNLSEKTSNRSLGATNRELINNRAANRLGLSREAAAVSSVNKLAASALKAQLVSNETLQNVPLEDSIASSSAYEDTDSIESSTPVVHPIDTKVSNVGQKRKAPDSTEENENTDTVRLYEPGYRERYYEQKFHISPDEPEKIREAVKHYVHGLCWVLLYYYQGCPSWTWYYPYHYAPFAADFKDLASIDVKFELNQPFKPYEQLLGVLPAASKNNLPEKLQTLMTDENSEIIDFYPENFTIDLNGKKFEWQGVALLPFIDENRLLNAVSKIYPQLTEEESKRNEDGSTLLFISEHHPMFSELVKQLYSKKRQGKPLKLSGKMAHGLFGKVNTNDSVIPNVSVQCPIDVTSADALQKYGSIDDNQSISLVFEVPKSHFVHKSMLLRGVKMPNRVLTPEDINQVRAERSFSSRRNNGNSAAALEHHHHHH", "soluble on expression in E. coli": "soluble"}
    ]}
  ]
}
